Measured values from the supplement of paper PMC10567573.
± gives the standard deviation.

Assay: protein stability index of a GFP-peptide fusion (GPS, HEK-293T) (PSI 1-6); higher = more stable
[1] = treatment: DMSO, c terminus: a fixed tail appended
[2] = treatment: MLN4924 1 uM, 8 h, c terminus: a fixed tail appended
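Also: 24-mer peptide tiles fused after GFP, lentivirally expressed, FACS-sorted into six equal bins by GFP/DsRed ratio, decoded by Illumina sequencing, PSI is the read-weighted mean bin number.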

IVVHCSAGIGRTGTFCSLDICLAQ [PTPN9]
protein stability index [1]: 3.85 ± 1
protein stability index [2]: 3.45 ± 0.19

PDQLPQNNTLVALPIVAIENILSF [FBXO28]
protein stability index [1]: 2.34 ± 0.24
protein stability index [2]: 2.38 ± 0.27

VVDKETDNMYRLAHFSPFLYYQSQ [PDZK1]
protein stability index [1]: 2.62 ± 0.35

HKRPHVDFFLEVVSQWYELVVFTA [CTDNEP1]
protein stability index [1]: 3.06 ± 0.76
protein stability index [2]: 2.77 ± 1.2

ATLICMAMQASKATKITLSAIYKW [FOXJ1]
protein stability index [1]: 3.15 ± 0.48
protein stability index [2]: 2.92 ± 0.71

LGLGSMIGTMAGITTPIIDTFKVP [SLC6A17]
protein stability index [1]: 2.55 ± 0.12
protein stability index [2]: 2.51 ± 0.31

WKLQKKEHPPEVSRETQRTPMNHQ [FBXO34]
protein stability index [1]: 4.52 ± 0.11
protein stability index [2]: 4.49 ± 0.16

YYSPILDQWTPIAAMLRGQSDVGV [KLHL13]
protein stability index [1]: 2.4 ± 0.3
protein stability index [2]: 2.26 ± 0.3

RNMLGLLGNVAEVKELRPQLMTSQ [ZER1]
protein stability index [1]: 3.09 ± 0.3
protein stability index [2]: 3.49 ± 0.69

YPVVVAESMYGDFQEAMTHLQHKL [TENT5D]
protein stability index [1]: 2.49 ± 0.15
protein stability index [2]: 2.81 ± 0.38

PIPWFLPESRSLPSSPLRLGSYKA [PPEF2]
protein stability index [1]: 2.99 ± 0.16
protein stability index [2]: 3.11 ± 0.48

RRLKQAKEEAQAEIEQYRLQREKE [ATP6V1G1]
protein stability index [1]: 5.47 ± 0.33
protein stability index [2]: 5.38 ± 0.25

ENHPQESKGQPRSQEESEEGEEDA [CHGB]
protein stability index [1]: 5.79 ± 0.094
protein stability index [2]: 5.64 ± 0.22

TSTKTDSEEGSWAQTLAYGDMNHE [PPFIA4]
protein stability index [2]: 4.66 ± 0.54

YQETISDVLNDAIFDEDHDEMVIV [GCH1]
protein stability index [1]: 3.98 ± 0.09
protein stability index [2]: 4.02 ± 0.25

AAASGAAGGGGGGAGAGAPGGGRL [INTS3]
protein stability index [1]: 4.98 ± 0.2
protein stability index [2]: 4.91 ± 0.26

VLSLACAGGHLAVVELLLAHGADP [ANKRD17]
protein stability index [1]: 2.3 ± 0.66
protein stability index [2]: 2.44 ± 0.95

SSNFHINVEESVDGQVVSSHKREI [KRT15]
protein stability index [1]: 4.7 ± 0.18
protein stability index [2]: 4.68 ± 0.18

LGIGMDSCVIPLRHGGLSLVQTTD [SEPHS2]
protein stability index [1]: 2.8 ± 0.33
protein stability index [2]: 2.98 ± 0.4

SELSESAFGYFITACAVIILTIIC [SLC29A1]
protein stability index [1]: 2.03 ± 0.21
protein stability index [2]: 2.12 ± 0.39

RMGSSESTDSGFCLDSPGPLDSKE [CDC25A]
protein stability index [1]: 5.45 ± 0.14
protein stability index [2]: 5.47 ± 0.44

QHQNKSPPKVKAEDGMQCLQLKET [DLC1]
protein stability index [1]: 5.17 ± 0.47
protein stability index [2]: 5.2 ± 0.11

LMTSKPAEVVKILQTMLRQSAFLH [INTS4]
protein stability index [1]: 2.78 ± 0.41
protein stability index [2]: 2.43 ± 0.29

VVVFKALVTTHHLMVHGNERFIQY [SNAP91]
protein stability index [1]: 3.2 ± 0.42
protein stability index [2]: 3.02 ± 0.5

AQLSELRCEMEAQNQEYKMLLDIK [KRT15]
protein stability index [1]: 3.65 ± 0.33
protein stability index [2]: 3.65 ± 0.38

NLSYKQVKTWFQNQRMKSKRWQKN [NANOGP8]
protein stability index [1]: 2.54 ± 0.23
protein stability index [2]: 2.57 ± 0.33

AYYRGAVGALLVYDIAKHLTYENV [RAB11A]
protein stability index [1]: 3.11 ± 0.5
protein stability index [2]: 2.89 ± 0.59

LTQRQVNITVQKKVSQWWERLTKQ [HACD3]
protein stability index [1]: 2.55 ± 0.33
protein stability index [2]: 2.81 ± 0.24

LCLDLAPSETGNTFVSGGCDKKAM [GNB5]
protein stability index [1]: 3.96 ± 0.15
protein stability index [2]: 4.02 ± 0.17

CEFSSERGPRMCRFIRERDRAVND [CDC25B]
protein stability index [1]: 3.51 ± 0.22
protein stability index [2]: 3.52 ± 0.17

TDAKKREALYAQDPSTGCYMYYFQ [KMT5A]
protein stability index [1]: 2.48 ± 0.22
protein stability index [2]: 2.68 ± 0.35

IFCLHGGLSPSIDTLDHIRALDRL [PPP2CA]
protein stability index [1]: 2.29 ± 0.59
protein stability index [2]: 2.21 ± 0.17

FPLMTIEEFAAGPAQSGILSDREV [BTBD1]
protein stability index [1]: 3.83 ± 0.33
protein stability index [2]: 3.98 ± 0.18

VKARKQEIIKVTEQLIEAINNGDF [CAMK2D]
protein stability index [1]: 2.59 ± 0.28
protein stability index [2]: 2.93 ± 0.3

GPWSCENFNPLLVAGGVAVAAIAL [CEND1]
protein stability index [1]: 3.34 ± 0.4
protein stability index [2]: 2.58 ± 0.9

SGRARQQDEEMLELPAPAEVAAKN [MLH1]
protein stability index [1]: 5.52 ± 0.29
protein stability index [2]: 5.2 ± 0.17

PGKALGPAATMAVELHYEEGSPRN [C2CD2L]
protein stability index [1]: 4.81 ± 0.29
protein stability index [2]: 4.82 ± 0.21

PVTPLGLQNEVPPQPDPVFLEALS [SERTAD3]
protein stability index [1]: 4.55 ± 0.33
protein stability index [2]: 4.46 ± 0.27

VDFSLSGRLLFAGYNDYTINVWDV [GNB5]
protein stability index [1]: 3.23 ± 0.53
protein stability index [2]: 2.58 ± 0.61

WIEQLNECKQLSESQVKSLCEKAK [PPP2CA]
protein stability index [1]: 3.85 ± 0.18
protein stability index [2]: 3.87 ± 0.1

LKEPLHKALQMLLSQPVTYQAFRE [BCL2L13]
protein stability index [1]: 2.76 ± 0.085
protein stability index [2]: 2.77 ± 0.4

STVTPVPGQEKGSALEGRADTTTG [EHMT1]
protein stability index [1]: 5.51 ± 0.32
protein stability index [2]: 5.53 ± 0.24

PPLPPPDDPATLGPHLGLRGVPQS [DYRK1B]
protein stability index [1]: 4.9 ± 0.23
protein stability index [2]: 4.91 ± 0.14

SSGRKWGDDAPKEEVDTGAVNLIE [INTS4]
protein stability index [1]: 5.22 ± 0.6
protein stability index [2]: 5.21 ± 0.13

SQDALRVVSTSGEQMKVYKCEHCR [IKZF1]
protein stability index [1]: 4.29 ± 0.33
protein stability index [2]: 4.38 ± 0.3

TAAGLMHTFNAHAATDITGFGILG [SEPHS2]
protein stability index [1]: 2.43 ± 0.51
protein stability index [2]: 2.44 ± 0.074

MATFPCQLCGKTFLTLEKFTIHNY [PLAGL1]
protein stability index [1]: 2.47 ± 0.23
protein stability index [2]: 2.4 ± 0.28

TNFVSRYDPRFNSWIQLPPMQERR [KLHL14]
protein stability index [1]: 3.22 ± 0.084
protein stability index [2]: 3.34 ± 0.31

ISEAQLKDRETSKVIYDFIEKTGG [WASL]
protein stability index [1]: 3.42 ± 0.13
protein stability index [2]: 3.67 ± 0.15

VIHRALDREQVSSYNITVTATDGG [PCDHGA10]
protein stability index [1]: 3.27 ± 0.23
protein stability index [2]: 3.14 ± 0.28

PVKKQLQGASWELQSLRPHDEDIK [ZNF396]
protein stability index [1]: 4.62 ± 0.21
protein stability index [2]: 4.72 ± 0.38

EGYTPLMEAAREGHEEMVALLLGQ [ANKRD17]
protein stability index [1]: 4.07 ± 0.32
protein stability index [2]: 4.07 ± 0.22

TYVSPPGNEEEESKIFTTLDPASL [DDIT3]
protein stability index [1]: 4.91 ± 0.26
protein stability index [2]: 5.08 ± 0.065

VLGINRAYGKNSLSKNLIKMLSKA [AUH]
protein stability index [2]: 2.244 ± 0.021

PRNSCITCPQCHRSLILDDRGLRG [TRIM9]
protein stability index [1]: 2.58 ± 0.27
protein stability index [2]: 3 ± 0.45

IHQETVSKNGNGLKNTPRFKRRRV [PCMTD2]
protein stability index [1]: 4.41 ± 0.27
protein stability index [2]: 4.63 ± 0.27

EAKSAQPADGWKGERPRSEEDNEL [GCH1]
protein stability index [1]: 5.56 ± 0.098
protein stability index [2]: 5.35 ± 0.16

LGPRDAGTRGRLESAQATFQAHRD [ARFIP2]
protein stability index [1]: 4.62 ± 0.35
protein stability index [2]: 4.67 ± 0.27

KGSSELGFPRVAPEDEVIVNQYVI [RNF208]
protein stability index [1]: 2.8 ± 0.44
protein stability index [2]: 2.64 ± 0.36

LTYINEDRISTTFRLTTLLMSGCS [PLK2]
protein stability index [1]: 2.74 ± 0.63
protein stability index [2]: 2.56 ± 0.45

YITKVSEEVTRLGAQVKELEEKCQ [TRIM15]
protein stability index [1]: 4.07 ± 0.24
protein stability index [2]: 4.22 ± 0.37

GHISLRRENSSDSPKELKRRNSSS [DLC1]
protein stability index [1]: 5.03 ± 0.27
protein stability index [2]: 5.23 ± 0.15

SVDIVSSHWDLNHTHPSACQGQRL [PLD5]
protein stability index [1]: 3.64 ± 0.16
protein stability index [2]: 3.82 ± 0.086

ILPKELQGWVREHCPESGEEAVIL [ZSCAN9]
protein stability index [1]: 2.74 ± 0.35
protein stability index [2]: 2.95 ± 0.47

DEGEEFDDWEDDYDYPEEEQLSGA [EID1]
protein stability index [1]: 5.39 ± 0.22
protein stability index [2]: 5.3 ± 0.22

TPMATKRSGAGVALLNDHIYVVGG [KLHL12]
protein stability index [1]: 2.91 ± 0.26
protein stability index [2]: 2.71 ± 0.31

MGTEPAPSAPEALHSLPGVSLSLE [TBX6]
protein stability index [1]: 4.28 ± 0.22
protein stability index [2]: 4.41 ± 0.24

IFGASSVDFSLSGRLLFAGYNDYT [GNB5]
protein stability index [1]: 2.6 ± 0.63
protein stability index [2]: 2.12 ± 0.49

NGLALGPDLNILEDSAESRPWRAG [PSD2]
protein stability index [1]: 4 ± 0.14
protein stability index [2]: 4.24 ± 0.38

ADSLDFDETFLATSFLQHPWDESG [FOXJ1]
protein stability index [1]: 4.22 ± 0.087
protein stability index [2]: 4.08 ± 0.13

GEGTFGKVVECLDHARGKSQVALK [CLK3]
protein stability index [1]: 4.45 ± 0.33
protein stability index [2]: 4.66 ± 0.082

TSDLGTTDVQKKKLVDAIVSGDTS [RIPK4]
protein stability index [1]: 4.97 ± 0.21
protein stability index [2]: 5.09 ± 0.12

EATQFLKQILDGVHYLHSKRIAHF [DAPK3]
protein stability index [1]: 2.9 ± 0.44
protein stability index [2]: 2.92 ± 0.56

VLSDINLKKGESECQYYIDKLEYL [NET1]
protein stability index [1]: 2.72 ± 0.18
protein stability index [2]: 2.94 ± 0.33

AEGTTGLAPAGQTSEESRPRLSQL [TNXB]
protein stability index [1]: 5.66 ± 0.21
protein stability index [2]: 5.36 ± 0.25

KQQRNEVSFVIHNLPIIAKMAAVS [SEPHS2]
protein stability index [1]: 2.51 ± 0.61
protein stability index [2]: 2.35 ± 0.36

AQTELLCCLVKMESLEPDAQVLML [FANCE]
protein stability index [1]: 2.61 ± 0.68
protein stability index [2]: 2.34 ± 0.16

LQLAIPRENAQISLDGDVTFFGAL [TNFSF13B]
protein stability index [1]: 2.1 ± 0.32
protein stability index [2]: 2.17 ± 0.36

GRKPERRRLKTTRLKEYTIKSHSS [DAPK3]
protein stability index [1]: 3.92 ± 0.17
protein stability index [2]: 4.06 ± 0.29

SPLCLIPMVTSPREEQQLLASTSK [KCTD13]
protein stability index [1]: 4.1 ± 0.29
protein stability index [2]: 4.37 ± 0.06

PFTVYQVRWLRPVHRQLGEANEEF [AUP1]
protein stability index [1]: 2.43 ± 0.34
protein stability index [2]: 2.33 ± 0.32

RLNIKKDDEFFHFVLLCFAIGALL [TMEM40]
protein stability index [1]: 2.73 ± 0.8
protein stability index [2]: 2.19 ± 0.54

IGSCVTNPCGPRSRCGPCNTFGY [KRT33B]
protein stability index (treatment: DMSO, c terminus: native): 2.9 ± 0.28
protein stability index (treatment: MLN4924 1 uM, 8 h, c terminus: native): 2.97 ± 0.34

RYALQLQQIQGLISSIEAQLSELR [KRT13]
protein stability index [1]: 3.17 ± 0.14
protein stability index [2]: 3.38 ± 0.35

LRVEFAAENYLSGGGPGDGGGADT [FBXO33]
protein stability index [1]: 4.16 ± 0.18
protein stability index [2]: 4.13 ± 0.26

AGEDNDELIDNLKEAQYIRTELVE [PCMTD2]
protein stability index [1]: 5.13 ± 0.18
protein stability index [2]: 5.02 ± 0.17

DGKLQLLQKLLSGRSREELDELTG [FEM1A]
protein stability index [1]: 3.24 ± 0.31
protein stability index [2]: 3.29 ± 0.26

APAMYDDESAIDFSAYIDSMAAVP [CEBPD]
protein stability index [1]: 4.32 ± 0.27
protein stability index [2]: 3.62 ± 0.15

KNEVGGLIKALKIFQEKHVNLLHI [TPH1]
protein stability index [1]: 2.02 ± 0.43
protein stability index [2]: 2.12 ± 0.011
